Data taken from paper PMC11770177, “Skeletal progenitor LRP1 deficiency causes severe and persistent skeletal defects with Wnt pathway dysregulation” (Bone Research, 2025).

Biological target: T1, low-density lipoprotein (LDL) receptor-related protein 1 (LRP1), purified human full-length (human, UniProt Q07954 20-4544)
T1 construct: LRP1, human, purified full-length protein coated onto microtiter plates; also called full-length LRP1; Full-length sLRP1; source: purified
Assay: ELISA; solid-phase binding assay; human full-length LRP1 (10 nmol/L) coated overnight at 4 °C onto microtiter plates in 50 mmol/L Tris-HCl (pH 7.5)/150 mmol/L NaCl/10 mmol/L CaCl2; 0-200 nmol/L Wnt in 5% BSA blocking solution, 30 min at RT; bound Wnt detected with a specific antibody; signal of wells without LRP1 subtracted; apparent KD (K_D,app), extrapolated from a one-phase decay nonlinear fit
Settings: both partners purified

T1 sequence (Q07954 20-4544): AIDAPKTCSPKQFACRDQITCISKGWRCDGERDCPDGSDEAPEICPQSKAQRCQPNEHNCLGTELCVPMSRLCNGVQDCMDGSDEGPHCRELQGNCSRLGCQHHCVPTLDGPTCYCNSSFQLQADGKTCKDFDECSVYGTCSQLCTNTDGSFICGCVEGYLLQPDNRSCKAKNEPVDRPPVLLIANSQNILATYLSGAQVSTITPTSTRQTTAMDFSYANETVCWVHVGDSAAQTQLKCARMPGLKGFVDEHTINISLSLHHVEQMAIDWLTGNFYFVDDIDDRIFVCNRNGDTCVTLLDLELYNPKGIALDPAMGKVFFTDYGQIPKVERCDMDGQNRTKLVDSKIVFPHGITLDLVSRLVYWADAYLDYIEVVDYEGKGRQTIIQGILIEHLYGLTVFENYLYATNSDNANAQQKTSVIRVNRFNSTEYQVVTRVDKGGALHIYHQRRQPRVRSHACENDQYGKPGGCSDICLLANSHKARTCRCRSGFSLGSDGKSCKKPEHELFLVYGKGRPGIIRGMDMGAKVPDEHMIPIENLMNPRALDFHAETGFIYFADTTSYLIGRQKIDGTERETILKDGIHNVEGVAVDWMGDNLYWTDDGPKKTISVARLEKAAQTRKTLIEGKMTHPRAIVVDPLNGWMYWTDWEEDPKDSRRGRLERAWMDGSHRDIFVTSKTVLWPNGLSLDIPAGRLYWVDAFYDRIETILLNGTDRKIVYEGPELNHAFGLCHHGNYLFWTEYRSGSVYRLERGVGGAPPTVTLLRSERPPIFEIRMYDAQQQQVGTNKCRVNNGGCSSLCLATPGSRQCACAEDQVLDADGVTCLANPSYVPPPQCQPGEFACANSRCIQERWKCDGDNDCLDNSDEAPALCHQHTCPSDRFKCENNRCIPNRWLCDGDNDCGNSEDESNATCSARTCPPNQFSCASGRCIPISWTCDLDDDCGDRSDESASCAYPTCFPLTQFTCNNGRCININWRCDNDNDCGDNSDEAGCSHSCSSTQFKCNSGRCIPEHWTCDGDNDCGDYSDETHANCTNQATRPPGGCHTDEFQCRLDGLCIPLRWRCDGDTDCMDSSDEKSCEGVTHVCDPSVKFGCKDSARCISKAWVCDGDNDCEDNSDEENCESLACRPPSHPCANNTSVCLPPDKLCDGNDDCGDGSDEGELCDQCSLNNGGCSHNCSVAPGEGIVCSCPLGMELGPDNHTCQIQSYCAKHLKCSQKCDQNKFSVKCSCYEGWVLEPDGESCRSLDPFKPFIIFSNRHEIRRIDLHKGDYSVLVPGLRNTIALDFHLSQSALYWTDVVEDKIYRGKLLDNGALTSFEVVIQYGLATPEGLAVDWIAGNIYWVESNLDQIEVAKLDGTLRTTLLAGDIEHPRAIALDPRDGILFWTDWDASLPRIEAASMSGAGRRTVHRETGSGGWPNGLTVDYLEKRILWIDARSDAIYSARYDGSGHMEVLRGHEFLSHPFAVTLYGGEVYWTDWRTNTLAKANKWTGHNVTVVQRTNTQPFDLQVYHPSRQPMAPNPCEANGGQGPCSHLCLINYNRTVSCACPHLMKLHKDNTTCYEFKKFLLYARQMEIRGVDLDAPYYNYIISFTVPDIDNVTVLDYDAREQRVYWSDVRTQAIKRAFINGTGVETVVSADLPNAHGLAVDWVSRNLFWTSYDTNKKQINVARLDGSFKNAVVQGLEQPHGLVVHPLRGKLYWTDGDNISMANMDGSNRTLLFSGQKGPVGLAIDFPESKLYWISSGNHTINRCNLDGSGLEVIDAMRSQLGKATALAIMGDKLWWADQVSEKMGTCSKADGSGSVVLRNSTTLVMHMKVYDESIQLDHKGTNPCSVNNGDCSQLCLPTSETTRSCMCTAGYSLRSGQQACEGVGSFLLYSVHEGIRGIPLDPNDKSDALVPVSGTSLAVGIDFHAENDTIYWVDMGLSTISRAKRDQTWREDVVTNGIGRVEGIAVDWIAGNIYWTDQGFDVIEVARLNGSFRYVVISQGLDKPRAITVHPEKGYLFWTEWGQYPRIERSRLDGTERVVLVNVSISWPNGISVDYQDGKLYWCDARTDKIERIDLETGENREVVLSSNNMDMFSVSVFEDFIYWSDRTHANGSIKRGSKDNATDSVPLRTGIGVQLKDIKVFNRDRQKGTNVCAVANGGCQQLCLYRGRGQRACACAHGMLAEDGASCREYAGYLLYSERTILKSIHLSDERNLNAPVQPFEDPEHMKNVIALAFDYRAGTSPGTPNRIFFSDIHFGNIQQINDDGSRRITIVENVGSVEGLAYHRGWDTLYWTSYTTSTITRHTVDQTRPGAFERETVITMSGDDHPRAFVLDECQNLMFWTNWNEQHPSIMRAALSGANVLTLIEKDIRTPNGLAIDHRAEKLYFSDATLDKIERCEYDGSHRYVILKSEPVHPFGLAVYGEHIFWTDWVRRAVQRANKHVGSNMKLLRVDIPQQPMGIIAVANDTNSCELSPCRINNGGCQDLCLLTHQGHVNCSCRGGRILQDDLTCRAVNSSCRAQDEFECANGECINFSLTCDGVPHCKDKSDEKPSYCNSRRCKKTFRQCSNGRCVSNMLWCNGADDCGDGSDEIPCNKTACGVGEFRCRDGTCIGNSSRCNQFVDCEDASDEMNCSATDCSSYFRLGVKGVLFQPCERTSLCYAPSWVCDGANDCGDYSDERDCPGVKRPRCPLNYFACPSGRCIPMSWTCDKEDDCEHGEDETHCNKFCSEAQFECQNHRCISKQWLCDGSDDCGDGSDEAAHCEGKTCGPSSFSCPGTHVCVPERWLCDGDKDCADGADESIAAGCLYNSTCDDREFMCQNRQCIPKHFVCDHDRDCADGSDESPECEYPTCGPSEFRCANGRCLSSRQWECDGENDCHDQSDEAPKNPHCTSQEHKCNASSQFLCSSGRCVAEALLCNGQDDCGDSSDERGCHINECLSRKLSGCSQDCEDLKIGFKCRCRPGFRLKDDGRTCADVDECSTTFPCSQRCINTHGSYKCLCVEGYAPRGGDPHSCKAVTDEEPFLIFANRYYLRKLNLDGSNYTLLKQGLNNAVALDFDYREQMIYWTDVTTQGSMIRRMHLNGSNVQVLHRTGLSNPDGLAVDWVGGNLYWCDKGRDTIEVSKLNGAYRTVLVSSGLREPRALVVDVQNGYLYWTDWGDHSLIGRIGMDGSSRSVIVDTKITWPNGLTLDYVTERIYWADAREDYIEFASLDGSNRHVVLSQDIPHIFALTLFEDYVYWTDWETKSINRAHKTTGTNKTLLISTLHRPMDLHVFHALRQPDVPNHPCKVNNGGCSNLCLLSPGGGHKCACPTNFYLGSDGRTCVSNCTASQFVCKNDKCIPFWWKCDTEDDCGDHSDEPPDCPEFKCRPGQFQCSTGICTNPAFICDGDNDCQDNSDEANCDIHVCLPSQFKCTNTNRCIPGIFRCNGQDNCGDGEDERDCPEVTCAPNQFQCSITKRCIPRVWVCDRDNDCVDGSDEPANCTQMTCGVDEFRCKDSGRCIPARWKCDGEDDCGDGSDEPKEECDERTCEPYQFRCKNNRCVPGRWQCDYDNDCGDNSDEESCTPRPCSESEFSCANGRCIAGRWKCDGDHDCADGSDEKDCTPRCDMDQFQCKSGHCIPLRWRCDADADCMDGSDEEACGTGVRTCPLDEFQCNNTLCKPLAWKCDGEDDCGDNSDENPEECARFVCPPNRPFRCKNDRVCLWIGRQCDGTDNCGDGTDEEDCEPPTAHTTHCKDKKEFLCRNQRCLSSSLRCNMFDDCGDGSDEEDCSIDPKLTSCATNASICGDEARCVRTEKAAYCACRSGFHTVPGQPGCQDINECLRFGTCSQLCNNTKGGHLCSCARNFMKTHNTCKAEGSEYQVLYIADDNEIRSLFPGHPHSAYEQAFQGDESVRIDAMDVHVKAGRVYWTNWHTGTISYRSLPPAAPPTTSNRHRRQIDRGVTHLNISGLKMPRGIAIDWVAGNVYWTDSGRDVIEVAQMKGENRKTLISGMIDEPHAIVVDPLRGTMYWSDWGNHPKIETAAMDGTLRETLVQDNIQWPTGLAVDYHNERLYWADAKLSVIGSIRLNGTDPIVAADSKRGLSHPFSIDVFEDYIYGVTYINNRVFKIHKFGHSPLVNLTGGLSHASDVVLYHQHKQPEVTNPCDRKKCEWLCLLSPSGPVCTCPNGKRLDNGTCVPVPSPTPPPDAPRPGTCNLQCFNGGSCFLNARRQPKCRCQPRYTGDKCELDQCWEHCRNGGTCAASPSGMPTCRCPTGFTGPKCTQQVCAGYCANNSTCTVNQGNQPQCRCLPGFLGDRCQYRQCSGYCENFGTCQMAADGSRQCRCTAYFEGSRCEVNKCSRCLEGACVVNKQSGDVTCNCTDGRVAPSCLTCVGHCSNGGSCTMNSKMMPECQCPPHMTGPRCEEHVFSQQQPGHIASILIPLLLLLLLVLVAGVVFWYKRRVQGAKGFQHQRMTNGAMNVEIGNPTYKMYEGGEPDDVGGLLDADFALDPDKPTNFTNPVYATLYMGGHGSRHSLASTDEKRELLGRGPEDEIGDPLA

Row | Binder | Kd [nM]
1 | Wnt5a (ligand, UniProt P41221 62-380, looked up, Wnt5a, purified protein; also called purified Wnt5a; source: purified) IIGAQPLCSQLAGLSQGQKKLCHLYQDHMQYIGEGAKTGIKECQYQFRHRRWNCSTVDNTSVFGRVMQIGSRETAFTYAVSAAGVVNAMSRACREGELSTCGCSRAARPKDLPRDWLWGGCGDNIDYGYRFAKEFVDARERERIHAKGSYESARILMNLHNNEAGRRTVYNLADVACKCHGVSGSCSLKTCWLQLADFRKVGDALKEKYDSAAAMRLNSRGKLVQVNSRFNSPTTQDLVYIDPSPDYCVRNESTGSLGTQGRLCNKTSEGMDGCELMCCGRGYDQFKTVQTERCHCKFHWCCYVKCKKCTEIVDQFVCK | 31
2 | Wnt11 (ligand, UniProt O96014 25-354, looked up, Wnt11, purified protein; also called purified Wnt11; source: purified) IKWLALSKTPSALALNQTQHCKQLEGLVSAQVQLCRSNLELMHTVVHAAREVMKACRRAFADMRWNCSSIELAPNYLLDLERGTRESAFVYALSAAAISHAIARACTSGDLPGCSCGPVPGEPPGPGNRWGGCADNLSYGLLMGAKFSDAPMKVKKTGSQANKLMRLHNSEVGRQALRASLEMKCKCHGVSGSCSIRTCWKGLQELQDVAADLKTRYLSATKVVHRPMGTRKHLVPKDLDIRPVKDSELVYLQSSPDFCMKNEKVGSHGTQDRQCNKTSNGSDSCDLMCCGRGYNPYTDRVVERCHCKYHWCCYVTCRRCERTVERYVCK | 42
3 | Wnt3a (ligand, UniProt P56704 19-352, looked up, Wnt3a, purified protein; also called purified Wnt3a; source: purified) SYPIWWSLAVGPQYSSLGSQPILCASIPGLVPKQLRFCRNYVEIMPSVAEGIKIGIQECQHQFRGRRWNCTTVHDSLAIFGPVLDKATRESAFVHAIASAGVAFAVTRSCAEGTAAICGCSSRHQGSPGKGWKWGGCSEDIEFGGMVSREFADARENRPDARSAMNRHNNEAGRQAIASHMHLKCKCHGLSGSCEVKTCWWSQPDFRAIGDFLKDKYDSASEMVVEKHRESRGWVETLRPRYTYFKVPTERDLVYYEASPNFCEPNPETGSFGTRDRTCNVSSHGIDGCDLLCCGRGHNARAERRREKCRCVFHWCCYVSCQECTRVYDVHTCK | > 200
